Columns and labels:
Assay in all cases: capture ELISA: Ab1 on anti-human IgG Fc, His-tagged receptor at 0.2 µg/mL, anti-His HRP
[1] = target: T1, hexahistidine tagged human IL-4Rα ECD K2D (human, UniProt P24394 26-232)
T1 construct: not shown: hexahistidine tag
Description: (§1) Example 2d. […] Briefly, thirty surface amino acid residue substitutions were introduced individually into hexahistidine tagged human IL-4Rα extra cellular domain (ECD) as follows: K2D, E6R, K22D, P26R, T31R, F41A, L42G, L43G, E45R, E52R, G56R, D66R, A71R, Q82G, K87D, E94R, H107A, D108R, P124R, D125R, D143R, R148D, L155R, R160D, S164R, S168R, Q181R, P192R, K195D, or H197G. Each mutant protein having a single amino acid residue substitution as described above was transiently expressed in CHO cells and purified using standard immobilized metal affinity chromatography techniques. […] The plates were then washed 3 times with PBST and the exemplified human IL-4Rα antibody was added to the wells at a final concentration of 1 μg/mL in PBS-casein and incubated for 1 hour at room temperature. The plates were washed 3 times with PBST, the IL-4Rα mutant proteins were serially diluted 5-fold from 1 μg/mL for 3 points. in PBS-casein and added to the plate at 50 μL/well and incubated for 1 hour at room temperature. The plates were washed 3 times with PBST and a 1000-fold dilution of anti-histidine tag antibody HRP conjugate (R&D Systems, Cat. #MAB050H) in PBS-casein was added and incubated for 45 minutes at room temperature. The plates were washed 3 times, TMB substrate (Pierce, Cat. #34028) was added per manufacturer instructions, the reaction was quenched with H₂SO₄, and absorbance was read at 450 nm on an ELISA plate reader.

[2] = target: T2, hexahistidine tagged human IL-4Rα ECD K22D (human, UniProt P24394 26-232)
T2 construct: not shown: hexahistidine tag
T2 sequence (P24394 26-232 K47D): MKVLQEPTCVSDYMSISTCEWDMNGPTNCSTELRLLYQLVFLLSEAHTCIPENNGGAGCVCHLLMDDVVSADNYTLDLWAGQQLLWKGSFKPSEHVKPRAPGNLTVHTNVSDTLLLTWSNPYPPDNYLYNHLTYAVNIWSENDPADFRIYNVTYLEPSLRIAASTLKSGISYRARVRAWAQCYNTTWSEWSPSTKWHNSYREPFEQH
Description: as §1

[3] = target: T3, hexahistidine tagged human IL-4Rα ECD T31R (human, UniProt P24394 26-232)
T3 construct: not shown: hexahistidine tag
T3 sequence (P24394 26-232 T56R): as the sequence (P24394 26-232 K47D) above, with D22K, T31R counted along it
Description: as §1

[4] = target: T4, hexahistidine tagged human IL-4Rα ECD F41A (human, UniProt P24394 26-232)
T4 construct: not shown: hexahistidine tag
T4 sequence (P24394 26-232 F66A): as the sequence (P24394 26-232 K47D) above, with D22K, F41A counted along it
Description: as §1

[5] = target: T5, hexahistidine tagged human IL-4Rα ECD L43G (human, UniProt P24394 26-232)
T5 construct: not shown: hexahistidine tag
T5 sequence (P24394 26-232 L68G): as the sequence (P24394 26-232 K47D) above, with D22K, L43G counted along it
Description: as §1

[6] = target: T6, hexahistidine tagged human IL-4Rα ECD E45R (human, UniProt P24394 26-232)
T6 construct: not shown: hexahistidine tag
T6 sequence (P24394 26-232 E70R): as the sequence (P24394 26-232 K47D) above, with D22K, E45R counted along it
Description: as §1

[7] = target: T7, hexahistidine tagged human IL-4Rα ECD G56R (human, UniProt P24394 26-232)
T7 construct: not shown: hexahistidine tag
T7 sequence (P24394 26-232 G81R): as the sequence (P24394 26-232 K47D) above, with D22K, G56R counted along it
Description: as §1

[8] = target: T8, hexahistidine tagged human IL-4Rα ECD A71R (human, UniProt P24394 26-232)
T8 construct: not shown: hexahistidine tag
T8 sequence (P24394 26-232 A96R): as the sequence (P24394 26-232 K47D) above, with D22K, A71R counted along it
Description: as §1

[9] = target: T9, hexahistidine tagged human IL-4Rα ECD Q82G (human, UniProt P24394 26-232)
T9 construct: not shown: hexahistidine tag
T9 sequence (P24394 26-232 Q107G): as the sequence (P24394 26-232 K47D) above, with D22K, Q82G counted along it
Description: as §1

[10] = target: T10, hexahistidine tagged human IL-4Rα ECD K87D (human, UniProt P24394 26-232)
T10 construct: not shown: hexahistidine tag
T10 sequence (P24394 26-232 K112D): as the sequence (P24394 26-232 K47D) above, with D22K, K87D counted along it
Description: as §1

[11] = target: T11, hexahistidine tagged human IL-4Rα ECD E94R (human, UniProt P24394 26-232)
T11 construct: not shown: hexahistidine tag
T11 sequence (P24394 26-232 E119R): as the sequence (P24394 26-232 K47D) above, with D22K, E94R counted along it
Description: as §1

[12] = target: T12, hexahistidine tagged human IL-4Rα ECD H107A (human, UniProt P24394 26-232)
T12 construct: not shown: hexahistidine tag
T12 sequence (P24394 26-232 H132A): as the sequence (P24394 26-232 K47D) above, with D22K, H107A counted along it
Description: as §1

[13] = target: T13, hexahistidine tagged human IL-4Rα ECD P124R (human, UniProt P24394 26-232)
T13 construct: not shown: hexahistidine tag
T13 sequence (P24394 26-232 P149R): as the sequence (P24394 26-232 K47D) above, with D22K, P124R counted along it
Description: as §1

[14] = target: T14, hexahistidine tagged human IL-4Rα ECD D125R (human, UniProt P24394 26-232)
T14 construct: not shown: hexahistidine tag
T14 sequence (P24394 26-232 D150R): as the sequence (P24394 26-232 K47D) above, with D22K, D125R counted along it
Description: as §1

[15] = target: T15, hexahistidine tagged human IL-4Rα ECD R148D (human, UniProt P24394 26-232)
T15 construct: not shown: hexahistidine tag
T15 sequence (P24394 26-232 R173D): as the sequence (P24394 26-232 K47D) above, with D22K, R148D counted along it
Description: as §1

[16] = target: T16, hexahistidine tagged human IL-4Rα ECD R160D (human, UniProt P24394 26-232)
T16 construct: not shown: hexahistidine tag
T16 sequence (P24394 26-232 R185D): as the sequence (P24394 26-232 K47D) above, with D22K, R160D counted along it
Description: as §1

[17] = target: T17, hexahistidine tagged human IL-4Rα ECD S168R (human, UniProt P24394 26-232)
T17 construct: not shown: hexahistidine tag
T17 sequence (P24394 26-232 S193R): as the sequence (P24394 26-232 K47D) above, with D22K, S168R counted along it
Description: as §1

[18] = target: T18, hexahistidine tagged human IL-4Rα ECD P192R (human, UniProt P24394 26-232)
T18 construct: not shown: hexahistidine tag
T18 sequence (P24394 26-232 P217R): as the sequence (P24394 26-232 K47D) above, with D22K, P192R counted along it
Description: as §1

T1 sequence (P24394 other isoform, or with tags, fused parts or gaps): as the sequence (P24394 26-232 K47D) above, with K2D, D22K counted along it

ELISA (OD450) [1]: 1.61 OD450 | ELISA (OD450) [2]: 1.3 OD450 | ELISA (OD450) [3]: 1.49 OD450 | ELISA (OD450) [4]: 1.54 OD450 | ELISA (OD450) [5]: 1.7 OD450 | ELISA (OD450) [6]: 1.86 OD450 | ELISA (OD450) [7]: 1.7 OD450 | ELISA (OD450) [8]: 1.57 OD450 | ELISA (OD450) [9]: 1.53 OD450 | ELISA (OD450) [10]: 1.56 OD450 | ELISA (OD450) [11]: 1.64 OD450 | ELISA (OD450) [12]: 1.84 OD450 | ELISA (OD450) [13]: 1.7 OD450 | ELISA (OD450) [14]: 1.61 OD450 | ELISA (OD450) [15]: 1.6 OD450 | ELISA (OD450) [16]: 1.7 OD450 | ELISA (OD450) [17]: 1.71 OD450 | ELISA (OD450) [18]: 1.75 OD450
B1: anti-human IL-4Rα antibody Ab1 (antibody, human IgG4 S228P, kappa)
heavy: QVQLVESGGGLVQPGGSLRLSCVASGFTFSHSSMNWVRQAPGKGLEWVSYISRATGAVYYADSVKGRFTISRDNAKNSLYLQMNSLRDEDTAVYYCAREPVFDYWGQGTLVTVSSASTKGPCVFPLAPCSRSTSESTAALGCLVKDYFPEPVTVSWNSGALTSGVHTFPAVLQSSGLYSLSSVVTVPSSSLGTKTYTCNVDHKPSNTKVDKRVESKYGPPCPPCPAPEFLGGPSVFLFPPKPKDTLMISRTPEVTCVVVDVSQEDPEVKFNWYVDGVEVHNAKTKPREEQFNSTYRVVSVLTVLHQDWLNGKEYKCKVSNKGLPSSIEKTISKAKGQPREPQVYTLPPSREEMTKNQVSLTCLVKGFYPSDICVEWESNGQPENNYKTTPPVLDSDGSFFLYSRLTVDKSRWQQGNVFSCSVMHEALHNHYTQKSLSLSLG
light: DIQMTQSPSAMSASVGDRVTITCRASQDISNYLAWFQQKPGKVPTRLIYAASSLQSGVPSRFSGSGSGTEFTLTISSLQPEDFATYYCLQWSSYPRTFGQGTKVEIKRTVAAPSVFIFPPSDEQLKSGTASVVCLLNNFYPREAKVQWKVDNALQSGNSQESVTEQDSKDSTYSLSSTLTLSKADYEKHKVYACEVTHQGLSSPVTKSFNRGEC
notes: human kappa light chain; also called anti-human IL-4Rα Ab1; unconjugated Ab1

From US20240100176A1 (Eli Lilly, published 2024)
